Molecular target: streptavidin (UniProt P22629)
Assay: capture of cells on streptavidin coated magnetic beads, before selection

UniProt P22629, sequence (P22629 37-163 limits assumed): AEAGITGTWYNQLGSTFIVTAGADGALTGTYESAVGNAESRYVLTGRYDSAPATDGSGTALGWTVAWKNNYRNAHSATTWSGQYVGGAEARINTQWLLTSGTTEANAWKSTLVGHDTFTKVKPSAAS

proportion of cells which bind to the beads: 0.02%
Substance: Ramos IgM (immunoglobulin of the unselected / wild-type Ramos Burkitt lymphoma cell line) (antibody)

Reference: patent publication EP2204447B1
